In article PMC5908797, “Evolutionary plasticity of the NHL domain underlies distinct solutions to RNA recognition”:
Numbering of substitutions follows the chain as printed.

Key:
CeLIN41 filamin-NHL [1] = molecular target: T1, CeLIN41 filamin-NHL (Caenorhabditis elegans, UniProt Q9U489 691-1147); assay: EMSA; FP: 20 mM HEPES, 200 mM NaCl, 0.05% Tween20, 100 nM Cy5-RNA, 30 min room temp; EMSA: 1x of 2x buffer (20 mM Hepes pH 8, 100 mM KCl, 200 mM NaCl, 0.2 mM EDTA, 20 mM DTT, 2 mM MgCl2, 2 mM CaCl2, 0.2 mM ZnSO4, 60% glycerol, heparin, E. coli tRNA), 5 uM protein stock (1 ul in 8 ul), ~2 nM RNA, room temp; conditions: protein: recombinant, tags: N-terminal Strep tag, TEV site, label: 32P (radioactive) body label
T1 sequence: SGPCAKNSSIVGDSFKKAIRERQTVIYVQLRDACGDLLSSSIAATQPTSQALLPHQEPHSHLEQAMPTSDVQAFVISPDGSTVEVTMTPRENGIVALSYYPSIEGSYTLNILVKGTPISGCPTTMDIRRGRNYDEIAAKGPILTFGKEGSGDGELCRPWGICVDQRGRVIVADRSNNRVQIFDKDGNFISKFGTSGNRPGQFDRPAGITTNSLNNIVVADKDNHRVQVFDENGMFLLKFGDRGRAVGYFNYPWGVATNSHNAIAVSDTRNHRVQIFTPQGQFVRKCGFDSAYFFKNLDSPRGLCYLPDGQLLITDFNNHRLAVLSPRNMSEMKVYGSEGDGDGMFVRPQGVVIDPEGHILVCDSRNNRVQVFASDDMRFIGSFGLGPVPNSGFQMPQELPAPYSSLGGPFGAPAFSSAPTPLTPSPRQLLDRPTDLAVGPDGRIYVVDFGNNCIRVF

CeLIN41 filamin-NHL [2] = molecular target: T1, CeLIN41 filamin-NHL; assay: EMSA; restored to wild-type level; FP: 20 mM HEPES, 200 mM NaCl, 0.05% Tween20, 100 nM Cy5-RNA, 30 min room temp; EMSA: 1x of 2x buffer (20 mM Hepes pH 8, 100 mM KCl, 200 mM NaCl, 0.2 mM EDTA, 20 mM DTT, 2 mM MgCl2, 2 mM CaCl2, 0.2 mM ZnSO4, 60% glycerol, heparin, E. coli tRNA), 5 uM protein stock (1 ul in 8 ul), ~2 nM RNA, room temp; conditions: protein: recombinant; tags: N-terminal Strep tag, TEV site; label: 32P (radioactive) body label; stems restored by compensatory mutations
CeLIN41 filamin-NHL [3] = molecular target: T1, CeLIN41 filamin-NHL; assay: fluorescence polarization; FP: 20 mM HEPES, 200 mM NaCl, 0.05% Tween20, 100 nM Cy5-RNA, 30 min room temp; EMSA: 1x of 2x buffer (20 mM Hepes pH 8, 100 mM KCl, 200 mM NaCl, 0.2 mM EDTA, 20 mM DTT, 2 mM MgCl2, 2 mM CaCl2, 0.2 mM ZnSO4, 60% glycerol, heparin, E. coli tRNA), 5 uM protein stock (1 ul in 8 ul), ~2 nM RNA, room temp; conditions: protein: recombinant, tags: N-terminal Strep tag, TEV site, label: 5'-Cy5, hairpin
CeLIN41 filamin-NHL [4] = molecular target: T1, CeLIN41 filamin-NHL; assay: EMSA; restored; FP: 20 mM HEPES, 200 mM NaCl, 0.05% Tween20, 100 nM Cy5-RNA, 30 min room temp; EMSA: 1x of 2x buffer (20 mM Hepes pH 8, 100 mM KCl, 200 mM NaCl, 0.2 mM EDTA, 20 mM DTT, 2 mM MgCl2, 2 mM CaCl2, 0.2 mM ZnSO4, 60% glycerol, heparin, E. coli tRNA), 5 uM protein stock (1 ul in 8 ul), ~2 nM RNA, room temp; conditions: protein: recombinant; tags: N-terminal Strep tag, TEV site; label: 32P (radioactive) body label; SL I and III restored

B1: mab-10 part 4 (structured_RNA)
RNA: UCGCAUCCAAUGCAUUGCAAGUUGAUUGCUUUUAUAAAUUUUUGGGUCUCGAAGCGAAAAGCCCAUAGGAUUUUCACAAAAAUUUUGCAUUUAAUGCAGUGAAAAUUCAAAAAAUUCAAAGAUUUUUCUGAAUAGAUCAAAUUUUCAAAUUUUCCGGUCAUUCGAAAUGGCCUAAUUUGCUCCAAAAAUUUGAAUAAUCC
binding result (CeLIN41 filamin-NHL [1]; tri-loop stem-loops): binds

B2: mab-10 part 4 mut-res (structured_RNA)
RNA: B1 RNA with C4G, G12C, C88G, G96C, C159G, G169C
binding result (CeLIN41 filamin-NHL [2]): binds

B3: L1 (lin-29A SL I, WT LRE) (structured_RNA)
RNA: GGAGUCCAACUCC
Kd (CeLIN41 filamin-NHL [3]; 5 bp stem, tri-loop): 1.32 µM

B4: Ctrl (5-nt loop) (structured_RNA)
RNA: GCUGACCAACUCC
binding result (CeLIN41 filamin-NHL [3]; 5 nt loop): no binding

B5: mab-10 condensed 3'UTR (structured_RNA)
RNA: UCUAGUUUUCAAAAAACCCCCCAUUUUUCCGGCGGUUUUUCAAAAACCAAUGCCAAGCUCUCAUAUAAUGGGAGUCUAAACACAGUUCGGUUCCAAAACUGAAAAACUUCAAUUUCGCAUCCAAUGCAUUGCAAGUUGAUUGCUUUUCACAAAAAUUUUGCAUUUAAUGCAGUGAAAAUUUUCCGGUCAUUCGAAAUGGCCUAAUUUGCUCCAAAAA
binding result (CeLIN41 filamin-NHL [1]; five tri-loop stem-loops): binds

B6: mab-10 condensed 3'UTR mut (structured_RNA)
RNA: B5 RNA with G35C, C62G, C118G, C161G, C188G
binding result (CeLIN41 filamin-NHL [1]; five stems disrupted): no binding

B7: mab-10 condensed 3'UTR mut-res (structured_RNA)
RNA: B5 RNA with G35C, C47G, C62G, G70C, C118G, G126C, C161G, G169C, C188G, G198C
binding result (CeLIN41 filamin-NHL [1]; five stems restored): binds

B8: lin-29A 5'UTR (structured_RNA)
RNA: GUUCCGAACCAAUUCGCCUAGCGAACCUUGGAGUCCAACUCCGUUUUUACUCUUUUCUGAAAAGAGCCUACUAAAUAUUGGAACUAUAAUCAAACUAUUCGAUCAAAUCGACACACCUACUAGAUAUCAAAUAUCUAAUACUGGAACCAAGGCUUGGGUAACCUGAAACUGUGCGAAUUUGGAGCAGAAAUAUU
binding result (CeLIN41 filamin-NHL [1]; four tri-loop stem-loops): binds

B9: lin-29A mut2-res (structured_RNA)
RNA: B8 RNA with G33C, C39G, G101C, C109G
binding result (CeLIN41 filamin-NHL [4]): binds

B10: mab-10 part 2 (structured_RNA)
RNA: UAAAUUCCCGCCCCCUUCGCUCGGAGUCAUAUAAUUUCCUUCUCUUCCUAUCACUUUUUUGUCUAGUUUUCAAAAAACCCCCCAUUUUUCCGGCGGUUUUUCAAAAACCAAUGCCAAGCUCUCAUAUAAUGGGAGUCUAAACACAGUUCGGUUCCAAAACCAACGCCCACGGCCCCGCCCCCAAUUAGAUAAUUUAAAUA
binding result (CeLIN41 filamin-NHL [1]; tri-loop stem-loops): binds

B11: mab-10 part 2 mut-res (structured_RNA)
RNA: B10 RNA with G96C, C108G, C123G, G131C
binding result (CeLIN41 filamin-NHL [2]): binds
